Source: paper PMC9688426, “Comparison of Optical and Electrical Sensor Characteristics for Efficient Analysis of Attachment and Detachment of Aptamer”

Target: thrombin (bovine, UniProt P00735;P00735 318-366;367-625)
Assay: graphene oxide FET resistance change; TBA adsorbed on graphene oxide; thrombin detected down to 250 pM within 5 min (detection limit, not Kd); Assay buffer and temperature not given in the material (reagents list PBS pH 7.4 and Trizma base); sections 3.2.1-3.2.3 have no text. GOx, trypsin, lysozyme, ficin and goat anti-mouse IgG were purchased, but no result for them is in the material
Details: protein: commercial; copies: 1;1

B1: TBA (ssDNA)
DNA: GGTTGGTGTGGTTGG
B1: binds.
